Measurements taken from patent publication US20040202655A1.

Assays:
[1] = biological target: IGF1R extracellular domain (human) (UniProt P08069); assay: SPR (BIAcore), IgG captured on protein A, IGF1R extracellular domain in flow
[2] = biological target: IGF1R extracellular domain (human) (UniProt P08069); assay: SPR (BIAcore), IgG captured on mouse anti-human IgG, IGF1R extracellular domain in flow

Row | Kd [1] [nM] | Kd [2] [nM] | Binder
1 | 0.109 | 0.503 | PINT-8A1 IgG (antibody, V domains shown) VH: EVQLVQSGAEVKKPGESLTISCKGPGYNFFNYWIGWVRQMPGKGLEWMGIIYPTDSDTRYSPSFQGQVTISVDKSISTAYLQWSSLKASDTAMYYCARSIRYCPGGRCYSGYYGMDVWGQGTMVTVSS VL: SELTQDPAVSVALGQTVRITCQGDSLRSYYASWYQQKPGQAPVLVIYGKNNRPSGIPDRFSGSSSGNTASLTITGAQAEDEADYYCNSRDSSGNHVVFGGGTKLTVLG
2 | 0.24 | 0.138 | PINT-9A2 IgG (antibody, V domains shown) VH: QVQLVQSGAEVRKPGASVKVSCKTSGYTFRNYDINWVRQAPGQGLEWMGRISGHYGNTDHAQKFQGRFTMTKDTSTSTAYMELRSLTFDDTAVYYCARSQWNVDYWGRGTLVTVSS VL: LNFMLTQPHSVSESPGKTVTISCTRSSGSIASNYVQWYQQRPGSSPTTVIFEDNRRPSGVPDRFSGSIDTSSNSASLTISGLKTEDEADYYCQSFDSTNLVVFGGGTKVTVLG
